Measurements from article doi:10.1101/2025.06.13.659517, “Analysis of apo and citraconate-bound hACOD1 (hIRG1) by X-ray crystallography and NMR spectroscopy: Structural insights for developing chemotherapeutic agents” (bioRxiv, 2025).

How the values were obtained:
[1] = target: the molecule itself; assay: crystal structure; crystals of apo and citraconate-bound hACOD1 (4-461) grown in conditions containing calcium acetate; solved by molecular replacement with PDB 6R6U; two protomers (chains A and B) form the dimer
purified protein = substrate: O=C(O)/C=C(/CC(=O)O)C(=O)O; assay: purified protein; type: biochemical, Homo sapiens; details: active site

B1: Human aconitate decarboxylase 1 (hACOD1), residues 4-461 (enzyme, UniProt A6NK06 4-461, looked up)
chain: KSITESFATAIHGLKVGHLTDRVIQRSKRMILDTLGAGFLGTTTEVFHIASQYSKIYSSNISSTVWGQPDIRLPPTYAAFVNGVAIHSMDFDDTWHPATHPSGAVLPVLTALAEALPRSPKFSGLDLLLAFNVGIEVQGRLLHFAKEANDMPKRFHPPSVVGTLGSAAAASKFLGLSSTKCREALAIAVSHAGAPMANAATQTKPLHIGNAAKHGIEAAFLAMLGLQGNKQVLDLEAGFGAFYANYSPKVLPSIASYSWLLDQQDVAFKRFPAHLSTHWVADAAASVRKHLVAERALLPTDYIKRIVLRIPNVQYVNRPFPVSEHEARHSFQYVACAMLLDGGITVPSFHECQINRPQVRELLSKVELEYPPDNLPSFNILYCEISVTLKDGATFTDRSDTFYGHWRKPLSQEDLEEKFRANASKMLSWDTVESLIKIVKNLEDLEDCSVLTTLLKGP
notes: The tag actually on the construct is therefore uncertain; also called hIRG1; hACOD1 (4-461); source: E. coli BL21-CodonPlus (RIPL), purified (StrepTactin column, TEV protease, SEC)
For B1, the “stoichiometry N” value [1] was 2 and the Km (purified protein) was 9.3 ± 2.1 mM.
